# Target: T1, mouse P2X7 (mouse, UniProt Q9Z1M0 1-595)
# T1 construct: on transfected CHO or Hek293 cells, or endogenous on Yac-1 cells; also called mP2X7; mouse purinoceptor P2X7
# T1 sequence: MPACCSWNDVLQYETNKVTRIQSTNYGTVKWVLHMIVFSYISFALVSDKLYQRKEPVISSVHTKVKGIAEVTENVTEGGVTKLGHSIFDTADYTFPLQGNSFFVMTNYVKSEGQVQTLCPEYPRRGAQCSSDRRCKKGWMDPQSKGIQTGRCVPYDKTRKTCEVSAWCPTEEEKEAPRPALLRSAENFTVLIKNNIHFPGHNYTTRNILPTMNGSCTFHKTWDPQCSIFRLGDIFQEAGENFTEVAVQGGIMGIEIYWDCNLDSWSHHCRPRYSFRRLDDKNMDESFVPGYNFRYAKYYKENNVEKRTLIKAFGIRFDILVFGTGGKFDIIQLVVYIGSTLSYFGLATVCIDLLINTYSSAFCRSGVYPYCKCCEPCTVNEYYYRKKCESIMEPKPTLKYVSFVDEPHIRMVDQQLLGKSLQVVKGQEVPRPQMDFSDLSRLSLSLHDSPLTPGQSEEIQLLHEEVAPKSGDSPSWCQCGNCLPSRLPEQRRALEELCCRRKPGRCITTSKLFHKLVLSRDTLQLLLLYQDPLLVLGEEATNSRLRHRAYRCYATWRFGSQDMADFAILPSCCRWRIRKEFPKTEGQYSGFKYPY
# Assay: Table A-1 'P2X7 function'; screening on mP2X7-expressing cells
row,Binder,binding result
1,"P2X7PMP16G3 (VHH, family 27; on phage or c-myc/His6-tagged in assays) VHH: EVQLVESGGGLVQAGGSLRLSCAASGNDFARFSIDAMGWYRQAPGKQRELVATVTEDGTKNYADSVKGRATISRDDANNSMYLEMNTLKPEDTAVYYCKMGGLIDGAAPYEFWGRGTQVTVSS",binds
2,"P2X7PMP18D12 (VHH, family 6; on phage or c-myc/His6-tagged in assays) VHH: EVQLVESGGDLVQAGGSLKLSCVVSGVTFDDGTIGWFRQAPGKEREGIACISRVDGTTYYRDSVKGRFTVSSDSAKTTVNLQMNSLKPEDTAVYYCAADYASLCTIETGYGSLYDYWGRGTQVTVSS",binds
3,"P2X7PMP4B3 (VHH, family 6; on phage or c-myc/His6-tagged in assays) VHH: EVQLVESGGDLVQAGGSLKLSCVVSGVTFDDGTIGWFRQAPGKEREGIACISRVDGTTYYRDSVKGRFTVSSDSAKTTVNLQMNSLKPEDTAVYYCAADYASLCTIETGYGSLYDYWGKGTQVTVSS",binds
4,"P2X7PMP15C7 (VHH, family 28; on phage or c-myc/His6-tagged in assays) VHH: EMQLVESGGGWVQAGGSLRLSCASSGSIFSAGAMGWYRQPAGKQRELVADITLGGSTNYADSVKGRFTISRDNAKNAVFLQMNSLKPEDTAVYYCNGLINTFARKIPRYAWGQGTQVTVSS",binds
5,"P2X7PMP7D8 (VHH, family 13; on phage or c-myc/His6-tagged in assays) VHH: EVQLVESGGGLVQPGGSLRLSCAASGLTLEYYNIGWFRQAPGKEREGVACIDWTEGSTFYVDSVKGRFTISTDNAKNTVYLHMNSLEPEDTAVYYCAAGWGRVITVQHMCADRSLFTSWGQGTQVTVSS",binds
6,"P2X7PMP19H4 (VHH, family 26; on phage or c-myc/His6-tagged in assays) VHH: EVQLVESGGGLVQAGGSLRLSCVASGRTLSTAVMGWFRQAPGKERGLVAMISWSGSMTYYAKSVKGRFTISRDNAKNTMYLQMNSLKPEDTAVYYCAADMGGGPPDGDAMPRLSSGMDYWGKGTLVTVSS",binds
7,"P2X7PMP5B1 (VHH, family 3; on phage or c-myc/His6-tagged in assays) VHH: EVQLVESGGGLVQAGGSLRLSCAASERTYSMGWFRQAPGKEREFVAGSGWDGIPTRYADSVKGRFTISRDNAKNTVSLQMSGLKPEDTAIYYCATGTSVYHYQYRGQGTQVTVSS",binds
8,"P2X7PMP11A1 (VHH, family 3; on phage or c-myc/His6-tagged in assays) VHH: EVQLVESGGGLVQAGGSLRLSCAASERTYSVGWFRQAPGKEREFVAGSGWDGTPTRYADSVKGRFTISRDNAKNTVSLQMSGLKPEDTAIYYCATGTSVYHYQYWGQGTQVTVSS",binds
9,"P2X7PMP11D3 (VHH, family 3; on phage or c-myc/His6-tagged in assays) VHH: EVQLVESGGGLVQPGGSLRLSCAASERTYSMGWFRQAPGKEREFVAGSGWDGIPTRYADSVKGRFTISRDNAKNTVSLQMSGLKPEDTAIYYCATGTSVYHYQYWGQGTQVTVSS",binds
10,"P2X7PMP11G1 (VHH, family 3; on phage or c-myc/His6-tagged in assays) VHH: EVQLVESGGGLVQAGGSLRLSCAASERTYSMGWFRRAPGKEREFVAGSGWDGIPTRYADSVKGRFTISRDNAKNTVSLQMSGLKPEDTAIYYCATGTSVYHYQYWGQGTQVTVSS",binds
11,"P2X7PMP7F1 (VHH, family 3; on phage or c-myc/His6-tagged in assays) VHH: EVQLVESGGGLVQAGGSLRLSCAASERTYSMGWFRQAPGKEREFVAGSGWDGIPTRYADSVKGRFTISRDNAKSTVSLQMSGLKPEDTAIYYCATGTSVYHYQYWGQGTQVTVSS",binds
12,"P2X7PMP7F3 (VHH, family 3; on phage or c-myc/His6-tagged in assays) VHH: EVQLVESRGGLVQAGGSLRLSCAASERTYSMGWFRQAPGKEREFVAGSGWDGIPTRYADSVKSRFTISRDNAKNTVSLQMSGLKPEDTAIYYCATGTSVYHYQYWGQGTQVTVSS",binds
13,"P2X7PMP13B2 (VHH, family 3; on phage or c-myc/His6-tagged in assays) VHH: EVQLVESGGGLVQAGGSLRLSCAASERTYSMGWFRQAPGKEREFVAGSGWDGIPTRYADSVKGRFTISRDNAKNAVSLQMSGLKPEDTAIYYCATGTSVYHYQYWGQGTQVTVSS",binds
14,"P2X7PMP20H9 (VHH, family 24; on phage or c-myc/His6-tagged in assays) VHH: EVQLVESGGRVMQTGGSLRLSCAASGHTFNDYSMGWFRQAPGKELEFLAGINWSGMSTWYADSVKDRFTISRDNNKNTVFLQMNSLEPGDTAVYYCAARQWISTIILTAPSQYDYWGQGTQVTVSS",binds
15,"P2X7PMP16F5 (VHH, family 29; on phage or c-myc/His6-tagged in assays) VHH: EVQLVESGGGLVQAGGSLRLSCAASGPTTFGRYTMGWFRQAPGREREFVAAISWIGGRTYYVDVVKGRFTISRDNAKKMVYLQMNSLKPDDTAVYHCAAAFQALGSPREYDYWGQGTQVTVSS",binds
16,"P2X7PMP7F9 (VHH, family 9; on phage or c-myc/His6-tagged in assays) VHH: EVQLVESGGGLVQAGASLRVSCAASARTGSYTMGWFRQAPGKEREFVSTISWNGASTVYADSVKGRFTISRDNAKNTVSLQMNSLKPEDTAVYYCAGSISSYSSRWQDDYEYWGQGTQVTVSS",binds

# Target: T1, mouse P2X7
# Assay: phage ELISA on fixed mP2X7-CHO vs untransfected CHO cells (minimally 2-fold)
# Method: Sub-confluent cells were rinsed with PBS and fixed using 4% paraformaldehyde in PBS for 10 minutes at RT. Fixed cells were washed three times with PBS, and blocked with 2% BSA in PBS for 2 hours. Following blocking, 10-fold diluted culture supernatant containing phage was added and incubated for 1 hour. Cell-bound phage was detected via mouse anti-M13-HRP-conjugate (GE Healthcare, Cat nr. E2886). Rat mAb Hano43 was used as positive control.
row,Binder,binding result
1,"P2X7PMP13E9 (VHH, family 22; on phage or c-myc/His6-tagged in assays) VHH: EVQLVESGGGLVQPGESLRLSCTASRFDLDYYDIAWFRQAPGKEREGVSCSFTNDGSTYYADSVKGRFTMSRNNDHRTVYLQMTSLQPEDTAVYTCAVGPLTRRRQCVPGDFSMDFWGEGTLVTVSS",binds
2,"P2X7PMP13F4 (VHH, family 12; on phage or c-myc/His6-tagged in assays) VHH: EVQLVESGGGLVQSGGSLRLSCAGSGFSYYIIGWFRQAPGKEREEVSCIRVTDGSTYHTNSVKGRFTMSRDNAENTVYLQMNSLKPEDTAVYSCATECQRWAYPNRIGARGQGTQVTVSS",binds
3,"P2X7PMP4G4 (VHH, family 4; on phage or c-myc/His6-tagged in assays) VHH: EVQLMESGGGLVQAGGPLRLSCAASGRTVSDYGMGWFRQAPGKEREFVASINWSGTYTRYIDSVEGRFTISRDNTENTLYLQMNNLKAEDTAVYYCAYFLGPNWYSDYGRPSSYDFYGQGTQVTVSS",binds
4,"P2X7PMP19D12 (VHH, family 4; on phage or c-myc/His6-tagged in assays) VHH: EVQLVESGGGLVQAGGSLRLSCAASGRTVSDYGMGWFRQAPGKLREFVASINWSGIYTRYIDSVEGRFTISRDNTKNTLYLQMNNLKAEDTAVYYCAYFLGPNWYSNYGRPSSYGFYGQGTQVTVSS",binds
5,"P2X7PMP20B8 (VHH, family 4; on phage or c-myc/His6-tagged in assays) VHH: EVQLVESGGGLVQAGGSLRLSCAASGRTVSDYGMGWFRQAPGKECEFVASINWSGTYTRYIDSVEGRFTISRDNTENTLYLQMNNLKAEDTAVYYCAYFLGPNWYSDYGRPSSYDFYGQGTQVTVSS",binds
6,"P2X7PMP19A7 (VHH, family 4; on phage or c-myc/His6-tagged in assays) VHH: KVQLVESGGGLVQAGGSLRLSCAASGRTVSDYGMGWFRQAPGKLREFVASINWSGIYTRYIDSVEGRFTISRDNTKNTLYLQMNNLRAEDTAVYYCAYFLGPNWYSNYGRPSSYDFYGQGTQVTVSS",binds
7,"P2X7PMP7E8 (VHH, family 8; on phage or c-myc/His6-tagged in assays) VHH: EVQLVESGGGLVQAGGSLRLSCAASGRTFSSSPVGWFRQAPGKERDFVATISWNGVDTHYLDSVKGRFTISRDNALNTVHLQMHILKPEDTALYYCAASTSGSAYLPYRVYQYDSWGQGTQVTVSS",binds
8,"P2X7PMP7F5 (VHH, family 8; on phage or c-myc/His6-tagged in assays) VHH: EVQLVESGGGLVQAGGSLRLSCAASGRTFSSSPVGWFRQAPGKERDFVATISWNGVDTHYLDSVKGRFTISRDNALNTVHLQMHILKPEDTALYYCAASTSGSAYLPYRVHQYDSWGQGTQVTVSS",binds
9,"P2X7PMP6D7 (VHH, family 7; on phage or c-myc/His6-tagged in assays) VHH: EVQLVESGGGLVQAGGSLRLSCAASGRTFSSLAMGWLRQAPGKEREFVSGISRGGTSTYYADSVKGRLTISRDNAKNTMYLQMNSLKPEDTAVYYCAGSPVLSIVLDTRGLEYWGQGTQVTVSS",binds

# Reference: patent US20160264664A1 (Ablynx, published 2016)
